Measured values reported in publication doi:10.1101/2020.09.01.276469.

Columns and labels:
Assay in all cases: BLI
[1] = target: TPX2 C-terminus (a.a. 480-716) (Xenopus laevis) (UniProt Q6NUF4)
[2] = target: triple-mutant TPX2 (TM-TPX2) (Xenopus laevis) (UniProt Q6NUF4)
[3] = target: double-mutant TPX2 (DM-TPX2) (Xenopus laevis) (UniProt Q6NUF4)
[4] = target: TPX2 aa1-178Δ123 (TPX2 1-178 with the KKLK motif mutated) (Xenopus laevis) (UniProt Q6NUF4)

importin-αΔIBB (importin-α without the importin-β binding domain) (domain or fragment), sequence (P52170 71-522, stated change not applied): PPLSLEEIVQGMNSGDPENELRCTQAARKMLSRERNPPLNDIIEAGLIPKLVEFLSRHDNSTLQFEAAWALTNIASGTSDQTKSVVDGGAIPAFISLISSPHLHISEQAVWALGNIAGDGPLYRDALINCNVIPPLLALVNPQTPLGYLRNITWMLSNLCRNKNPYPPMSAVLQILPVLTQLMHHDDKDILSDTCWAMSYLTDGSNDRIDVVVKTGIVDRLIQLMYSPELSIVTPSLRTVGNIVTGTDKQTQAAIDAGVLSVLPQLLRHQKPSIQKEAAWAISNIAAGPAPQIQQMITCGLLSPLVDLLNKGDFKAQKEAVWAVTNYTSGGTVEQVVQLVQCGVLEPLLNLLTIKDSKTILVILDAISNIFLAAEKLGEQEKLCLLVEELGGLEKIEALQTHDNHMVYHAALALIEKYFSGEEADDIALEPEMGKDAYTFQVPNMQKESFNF
TPX2 C-terminus (a.a. 480-716) (Xenopus laevis), sequence (Q6NUF4 480-716): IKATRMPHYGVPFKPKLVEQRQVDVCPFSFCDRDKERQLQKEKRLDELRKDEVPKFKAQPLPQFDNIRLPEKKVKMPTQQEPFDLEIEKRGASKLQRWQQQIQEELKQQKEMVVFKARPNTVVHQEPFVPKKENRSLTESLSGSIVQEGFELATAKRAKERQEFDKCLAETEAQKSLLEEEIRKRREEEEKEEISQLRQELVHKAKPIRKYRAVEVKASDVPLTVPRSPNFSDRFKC
importin-β, sequence (P52297 whole entry): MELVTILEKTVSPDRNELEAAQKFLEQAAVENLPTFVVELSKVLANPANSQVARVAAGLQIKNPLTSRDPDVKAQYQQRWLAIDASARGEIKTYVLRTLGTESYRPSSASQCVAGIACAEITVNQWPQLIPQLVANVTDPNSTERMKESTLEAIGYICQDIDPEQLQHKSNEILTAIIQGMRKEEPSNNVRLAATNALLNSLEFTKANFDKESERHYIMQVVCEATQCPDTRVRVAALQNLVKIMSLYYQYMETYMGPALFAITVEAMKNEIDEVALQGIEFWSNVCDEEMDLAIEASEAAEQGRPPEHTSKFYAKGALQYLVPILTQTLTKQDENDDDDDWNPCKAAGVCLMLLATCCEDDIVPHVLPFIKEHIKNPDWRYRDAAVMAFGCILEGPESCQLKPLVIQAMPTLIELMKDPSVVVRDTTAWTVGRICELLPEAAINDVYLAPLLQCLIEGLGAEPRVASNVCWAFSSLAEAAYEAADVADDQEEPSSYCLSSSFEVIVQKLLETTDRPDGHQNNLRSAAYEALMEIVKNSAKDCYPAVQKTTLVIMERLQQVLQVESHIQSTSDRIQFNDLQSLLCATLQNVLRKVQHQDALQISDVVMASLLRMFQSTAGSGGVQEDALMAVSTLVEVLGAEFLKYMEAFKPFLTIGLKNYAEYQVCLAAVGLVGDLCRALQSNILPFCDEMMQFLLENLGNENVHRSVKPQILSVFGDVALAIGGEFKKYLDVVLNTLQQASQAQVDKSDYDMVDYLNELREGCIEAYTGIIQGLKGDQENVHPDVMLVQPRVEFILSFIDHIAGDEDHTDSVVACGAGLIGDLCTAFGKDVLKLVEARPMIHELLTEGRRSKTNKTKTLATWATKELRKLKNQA

Row | Kd [1] [nM] | Kd [2] [nM] | Kd [3] [nM] | fold loss of binding against the wild type 1-178 TPX2 construct [4] [fold] | Substance
1 | > 4000 | – | – | – | importin-β (from UniProt P52297 1-876) (natural protein)
2 | – | 410 | 45 | 10 | importin-αΔIBB (importin-α without the importin-β binding domain) (domain or fragment)
